B1: LINE1-mini (parent)
chain: GGCAGAGCUCAACACAGCGUGGCAAAGUGGCUGUGGCUAGACUGCC

Variants of: B1
Assay: self-cleavage, relative activity (ratio to wild type); higher = more cleavage; in vitro, sequencing; the parent is a self-cleaving ribozyme

Variant	self-cleavage
GGCAGAGCUCAACACAGCGUGGCAAAGUGGCUCUGGCUAGACUGAC	0.04
GGCAGAGCUCAACACAGCGUAGCAAAGUGGCUGUGGAUAGACUGCC	0.08
GGCAGAGCUCCACACAGCGUGGCAAAGCGGCUGUGGCUAGACUGCC	0.03
GGCAGACCUCAACACAGCGUGGCAAAGUGGCUGUGGCCAGACUGCC	0.1
GCCAGAGCUCAACACAGCUUGGCAAAGUGGCUGUGGCUAGACUGCC	0.11
GGCAGAGCUCAAUACAGCGUGGCAAAGUGGCCGUGGCUAGACUGCC	0.08
GGCAGAGCUCCACACAGCGGGGCAAAGUGGCUGUGGCUAGACUGCC	0.04
GGCAGAGCUCAACAGAGCGUGGCAUAGUGGCUGUGGCUAGACUGCC	0.04
GGCAGAGCUCAGCACAGCGUAGCAAAGUGGCUGUGGCUAGACUGCC	0.05
GGCAGAUCUCAACACACCGUGGCAAAGUGGCUGUGGCUAGACUGCC	0.07
GGCAGAGCUCAACUCAGCGUGGCAAAGUGGCUGUGGCUAGAGUGCC	0.1
CGCAGAGCUCAACACAGCGCGGCAAAGUGGCUGUGGCUAGACUGCC	0.04
GGCAGAGCUCAACACUGCGUGGCAAAGUGGCUGUGGCUACACUGCC	0.05
GGCAGAGCUCAACACAGCGUUGCAAAGUGACUGUGGCUAGACUGCC	1.81
GGCAGAGCUCAACACAGCGUGGCAAAGCGGCUGUUGCUAGACUGCC	0.09
GGCAGAGCUCAACACAGCGUGGCAGAGUGUCUGUGGCUAGACUGCC	0.89
GGCAGGGCUCAACACAGCGUGGCAAAGUGGCUGUGGCUAGAUUGCC	0.07
GGCAGAGCUCAACACAGCGUGGUAAAGUGGCUGUGGCUAGACUCCC	0.48
GGCAGAGCUCAACACAGCGUGGCAAAGUCGCUGUGGCUAGUCUGCC	0.32
CGCAGAGCUCAACACAGCGUGGCAAAGUCGCUGUGGCUAGACUGCC	0.07
GGCAGAGCUCAACAGAGCGUGGCAAAGUGGCUGUGGCUAGAAUGCC	0.04
GGCAGAGCUCAACCCAGCGUAGCAAAGUGGCUGUGGCUAGACUGCC	0.17
GGCCGAGCUCGACACAGCGUGGCAAAGUGGCUGUGGCUAGACUGCC	0.04

Variant	self-cleavage
GGCAGAGCUCGACACAGCGUGGCAAAGUGGCUGUGGUUAGACUGCC	0.05
GGCGGAGCUCAACACAGCGUGGCAAAGUGGCUGUGGCUAGACGGCC	1.35
GGCAGGGCUCAGCACAGCGUGGCAAAGUGGCUGUGGCUAGACUGCC	0.03
GGCAGAGCUCAACACAGCGUGGCAAAGUGGCUGUGGCUAGACUUCC	0.32
GGCAGAGAUCAACACAGCGUGGCAAAGUGGCUGUGUCUAGACUGCC	0.22
GGCAGAUCUCAACACAGCGUGGCAAAGUGCCUGUGGCUAGACUGCC	0.06
GUCAGAGCGCAACACAGCGUGGCAAAGUGGCUGUGGCUAGACUGCC	0.06
GGCAGAGCUCAACAGAGUGUGGCAAAGUGGCUGUGGCUAGACUGCC	0.04
AGCAGAGCUUAACACAGCGUGGCAAAGUGGCUGUGGCUAGACUGCC	0.35
GGAAGAGCUCAACACAGCGUGGCAAAGUGGCUGUCGCUAGACUGCC	0.18
GGCAGAGCUCAACACAGCGUGGCAAAGUGGCUGGGGCUAGACUGGC	0.13
CGCAGAGCUCAACACAACGUGGCAAAGUGGCUGUGGCUAGACUGCC	0.02
GGCAGAGCUCAACACAGCGUGGCAAAGUCGCUGUCGCUAGACUGCC	0.15
GGCAGAGCUCAACACAGCGUGGCAAGGUGGCUGUGGCCAGACUGCC	0.44
GGCAGAGCUCAAAACAGCGUGGCAAAGUGGCUGUGGCUAGACUGCG	0.06
GGCAGAGGUCAAUACAGCGUGGCAAAGUGGCUGUGGCUAGACUGCC	0.18
GGCAGAGCUCAACACAUCGUGGCAAAGUGGCUGUGGCUUGACUGCC	0.2
GGCAGAGCUCAACACAGCGUGGCAAAGUGGCUCUGGCUAAACUGCC	0.05
GGCAGAGCUCAACACAGCGUCGCAAAGUGGCUGUGCCUAGACUGCC	0.03
GGCAGAGCUCAACACAGCGUGGCAAAGUGGCUGAGGCUAGACUGAC	0.08
GGCAGAGCUCAACACAGCGUGGCAAAGUCGCUGUGGCCAGACUGCC	0.11
GGCAGAGCUCAACAGCGCGUGGCAAAGUGGCUGUGGCUAGACUGCC	0.11
GGAAGAGCUCAACACAGCGUGGCAAAGUGGCUGCGGCUAGACUGCC	0.14

Variant	self-cleavage
GGCAGAGCUCAACACGGCGUGGCAAAGUGGCUGUGGCGAGACUGCC	0.01
GGCAGAGCUCAACACAGCGUGGCAAAGUGCCUGUAGCUAGACUGCC	0.09
GGCAGAGCUCAACGCAGCGUGUCAAAGUGGCUGUGGCUAGACUGCC	0.98
GGCAGAGCUCAACACAGCGUGGCAACGUGGCUGUGGCUACACUGCC	0.07
GGCAGAGCUCAACACAGCGUGGCAAAGUGGCUGUAGGUAGACUGCC	0.02
GGCAGAGCUCAACACAGCGUGGCGAAGUGGCUGUGGCUAGACUACC	1
GGCAGAGCUCAACACAGCGUGGCAAAGUCGCUGUGGCUAAACUGCC	0.07
GGCAGAGCUCAACACAGCGUGGCAAAGUGUCUGUGGCUAAACUGCC	0.08
GGCAGAGCACAACACAGCGUGUCAAAGUGGCUGUGGCUAGACUGCC	0.11
GGCAGAGCUCAACACAGCGUAGCAAAGUGGGUGUGGCUAGACUGCC	0.13
GGCAGAGCUCAACACCGCGUGGCAAAGUGGCUGUGGCUAGCCUGCC	0.03
GGCAGAGCUCAAAACAGCGUGGCAAAGUGGCUGUGGCAAGACUGCC	0.05
GGCGGAGCUCAACACUGCGUGGCAAAGUGGCUGUGGCUAGACUGCC	0.16
GGCAGAGCUCAACACAGCGUCGCAAAGUGGCUGUGGCUGGACUGCC	0.05
GGCAGAGCUCAACACAGCGUGGCAGAGUGGCUGUGGCUAAACUGCC	0.04
GGCAGAGCUCAACACUGCGUGGCAAAGUGGCUGUGGCUGGACUGCC	0.07
GGCAGAGCUCAACACAGCGUGGCAGAGUGGCGGUGGCUAGACUGCC	0.12
GGCAGAGCUCAACACAGCGUGCCAUAGUGGCUGUGGCUAGACUGCC	1.23
GGCAGAGCUCAACACAGCGUGCCAACGUGGCUGUGGCUAGACUGCC	2.46
GGCAGAGCUCAACACAGCGUGGCAAAGUGGCUUUGGCUAGACUGCC	0.11
GGCAGAGCUGAACACAGGGUGGCAAAGUGGCUGUGGCUAGACUGCC	0.04
GGCGGAGCUCAACACAGCGUGGCAAAGUGGCUUUGGCUAGACUGCC	0.16
GGCACAGCUCAGCACAGCGUGGCAAAGUGGCUGUGGCUAGACUGCC	0.05

Variant	self-cleavage
GGCAGAGCUCAAGACAGCGUGGCAAAGUGGCUGUGGCGAGACUGCC	0.01
GGCACAGCUCAACACAGCGUGCCAAAGUGGCUGUGGCUAGACUGCC	0.13
GGCAGAGCUAAUCACAGCGUGGCAAAGUGGCUGUGGCUAGACUGCC	0.04
GGCAGAGAUCAACACAGCGUGGCAAAGUGGCUCUGGCUAGACUGCC	0.28
GGCAGAGCUCAACACAGCGUGGCAAAGUGGCCGUGGCUAGCCUGCC	0.09
GGCAGAGCUCAACACAGCGUGGCAAACUGGCUGUAGCUAGACUGCC	0.09
GGCAGAGCUCACCACAGCGUGGCAAAGUGGCUGUGGCUAGGCUGCC	0.03
GGCAGAGCUCAACACAGCGUGUCAAAGUGGCUGUGGCUAGCCUGCC	0.04
GGCAGAUCUCAACACAGCGUGGCAAAGUGGCAGUGGCUAGACUGCC	0.08
GCCAGAGCUCAACACAGCGUGGCAAAGUGGCUAUGGCUAGACUGCC	0.04
AGCAGAGCUCAACACAGCGUGGCAAAGUGGCUGUGGCUAGACUACC	0.28
GGCUGAGCUCAACACAGCGUGGCAAAGUGGCUGUGGCUAAACUGCC	0.17
GGCAGAGCUCAACAUAGCGUGGCAAAGUGGCUGUGGCUAGACCGCC	0.14
GGCAGAGCUCAACGCAGCGUGGCAAAGUGGCUGUUGCUAGACUGCC	0.15
GGCAGAGCUCGACACAGCGUGGCAAAGUGGCUGUGGCUAGACUGGC	0.03
GGCAUAGCUCAACACAGCGUGGCAAAGUGGCUGUGGCUAGACUGCU	0.07
GGCAGAGGUCAACACAGCGUGGCAAAGUUGCUGUGGCUAGACUGCC	0.11
GGCAGAGCUCAACACAGCGGGGCAAAGUGGCUGCGGCUAGACUGCC	0.39
GGCAGGGCUCAACACAGCGUGGCAAAGUGGCUGUGGCUAGCCUGCC	0.15
GGCAGAGCUCAACACAGCGGGGCAAAGUGGCUGUGGCGAGACUGCC	0.02
GGCAGAGCUCAACACAGGGUGGCAAAGUGGCUGUGGCUAGAUUGCC	0.05
GGCCGAGCUCAACACAGCGUGGCAAAGUGUCUGUGGCUAGACUGCC	0.19
GGCAGAGCCCAACACAGCGUGGCAAAGUGGCUGUGGCUAGACUGCA	0.03

Variant	self-cleavage
AGCAGAGCUCAAUACAGCGUGGCAAAGUGGCUGUGGCUAGACUGCC	0.2
GCCAGAGCCCAACACAGCGUGGCAAAGUGGCUGUGGCUAGACUGCC	0.03
GGCAGAGCUCAACACAGCGUGGCAAAGUGGCUGUGGGUAGACGGCC	0.05
GGCAGAGCUCAACACAGCGUGGCAAAGUAGCUGUGGCUAGACUGAC	1.03
GGCAGAGCUCAACACAGGUUGGCAAAGUGGCUGUGGCUAGACUGCC	0.56
GGGAGAGCUCAACACAGCGUGGCAAAGUGGCUGUAGCUAGACUGCC	0.23
GGCAGAGCUCAACACAGUGUGGCAAAGUGGCUGUGGUUAGACUGCC	0.07
GGCAGAGCUCAACACAGCGUGGCAAAGUGGCUGUAGCGAGACUGCC	0.02
GGCAGAGCUCAACUCAGCGUGGCAAAGUGGCAGUGGCUAGACUGCC	0.05
CGCAGAGCUCAACACAGCGUUGCAAAGUGGCUGUGGCUAGACUGCC	0.17
GGCAGAGCUCAACGCAGCGUGGCAAAGUGGCUGCGGCUAGACUGCC	0.61
GGCAGACCUCAACACAGCGUGGCAAAGUGGCUGUGGCUAGACUGUC	0.16
GGCAGAGCUCAACACAGCGUGGCAAAUUGGCUGUGGCUAGACCGCC	0.1
GGCAGGGCUCAACACAGCGUGGCAAAAUGGCUGUGGCUAGACUGCC	0.14
GGCAGAGCUCAACACAGCGUGGCAAAGUGGCUGUAGCUAGACUACC	0.1
GGCAGAGCUCAACGCAGCGUGGCAAAGUGGCUGUGACUAGACUGCC	0.26
GGCAGAGCCCGACACAGCGUGGCAAAGUGGCUGUGGCUAGACUGCC	0.02
GGCAGAGCUCAACACCGCGUGGCAAAGUGGCUGUGGCUAGACUGGC	0.06
GGCAGAGCUAAACACGGCGUGGCAAAGUGGCUGUGGCUAGACUGCC	0.07
GGCAGAGCUCAACACAGCGUUGCAAAGUGGCUGUGGCAAGACUGCC	0.42
